This is an account of results in US20200369772A1 (ABBA THERAPEUTICS, published 2020).

The term IC50 denotes the concentration that gives 50% inhibition. A word on the EC50: it is the concentration needed to bring the measured effect to its halfway point.

For test [1], the target named is T1, human PD-L2 (full-length, on cells) (human, UniProt Q9BQ51 20-273).
T1 construct: whole, on cells; CHO-K1 cells stably expressing full-length human PD-L2; also endogenous on NCI-H226 and transfected in Jurkat cells; also called hPD-L2; CHO-K1/hPD-L2
T1 sequence (looked up): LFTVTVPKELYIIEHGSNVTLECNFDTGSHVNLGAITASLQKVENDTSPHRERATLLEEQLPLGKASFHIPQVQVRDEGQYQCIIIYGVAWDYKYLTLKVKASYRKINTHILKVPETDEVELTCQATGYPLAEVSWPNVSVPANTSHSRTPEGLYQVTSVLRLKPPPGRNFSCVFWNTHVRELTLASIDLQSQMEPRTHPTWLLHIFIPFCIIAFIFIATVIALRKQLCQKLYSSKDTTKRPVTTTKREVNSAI
Kind of test: FACS binding on cells expressing human PD-L2 (per the examples). Background: Flow cytometry measures light scatter and fluorescence of single cells or particles in a stream.

Test [2] deals with T2, human PD-L1 (full-length, on cells) (human, UniProt Q9NZQ7 19-290).
T2 construct: whole, on cells; HEK293 cells stably expressing full-length human PD-L1
T2 sequence (Q9NZQ7 19-290): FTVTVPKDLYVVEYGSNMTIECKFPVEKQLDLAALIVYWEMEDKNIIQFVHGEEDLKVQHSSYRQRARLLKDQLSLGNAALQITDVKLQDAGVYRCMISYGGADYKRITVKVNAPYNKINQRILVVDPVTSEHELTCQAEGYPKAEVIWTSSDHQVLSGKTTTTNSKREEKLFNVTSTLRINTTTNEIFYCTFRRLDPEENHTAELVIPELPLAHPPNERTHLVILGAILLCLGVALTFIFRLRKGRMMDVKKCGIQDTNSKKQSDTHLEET
Kind of test: FACS on HEK293 cells stably expressing full-length human PD-L1. The method, then: (§1) The ability of anti-PD-L2 antibodies binding to mouse PD-L2, human PD-L1 or cyno PD-L2 was determined by FACS. HEK293 cells stably expressing full-length monkey PD-L2, mouse PD-L2 or human PD-L1 were established, subcloned and verified. For binding assay, 1.5×10⁵ cells in 100 μl of FACSwash buffer were incubated with individual anti-PD-L2 antibodies (0.5 μg/ml) for 30 min. After three times of washing, the cells were re-suspended in FACSwash buffer containing FITC-labelled goat-anti-rat IgG (Thermo Fisher, 1:1000) or APC-labelled goat-anti-ratIgG (Biolegend, Clone Poly4054) at a 1:2000 dilution for 20 min at 4° C., washed three times and subsequently subjected to FACS analysis. FACS data was analysed using FlowJo Software and depicted as histograms including secondary antibody only controls.

For test [3], the target named is T3, recombinant human PD-L2-Fc-biotin (human, UniProt Q9BQ51 20-220, biotin).
T3 chain: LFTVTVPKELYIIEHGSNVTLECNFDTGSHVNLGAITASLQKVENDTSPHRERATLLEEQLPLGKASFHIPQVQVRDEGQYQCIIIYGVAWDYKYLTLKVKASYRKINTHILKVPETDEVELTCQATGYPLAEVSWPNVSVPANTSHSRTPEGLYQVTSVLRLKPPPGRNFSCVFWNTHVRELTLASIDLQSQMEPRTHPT
Kind of test: blocking of PD-L2 - PD-1 interaction (cell binding); low antigen concentration. Summed up: (§2)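 The IC50 was calculated by non-linear curve fitting in GraphPad Prism from a flow cytometry assay of ligand binding to HEK293 cells stably expressing human PD-1. For this, antibody in serial dilution (0.03 ng/ml-0.5 μg/ml) was first held with recombinant human PD-L2-Fc-biotin (5 ng/ml, 100 pM) in 100 μl for 60 min at 4° C, then added to 1.5×10⁵ cells for 30 min at 4° C. Binding was read with fluorochrome-conjugated streptavidin (20 min, 4° C), with control wells defining 0% and 100% binding.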

The target of test [4] is T4, human PD-L2 (full-length, on cells) (human, UniProt Q9BQ51 20-273).
T4 chain: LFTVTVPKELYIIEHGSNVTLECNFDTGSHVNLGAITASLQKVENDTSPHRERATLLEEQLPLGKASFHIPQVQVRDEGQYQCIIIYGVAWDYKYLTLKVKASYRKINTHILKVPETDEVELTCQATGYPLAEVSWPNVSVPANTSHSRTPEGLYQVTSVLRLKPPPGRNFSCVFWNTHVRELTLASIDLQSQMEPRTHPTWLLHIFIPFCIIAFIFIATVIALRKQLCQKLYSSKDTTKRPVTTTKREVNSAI
Kind of test: FACS binding to CHO-K1 cells expressing human PD-L2. Summed up:
(§3)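 Flow cytometry on a BD FACSCalibur was used to measure binding to CHO-K1 cells stably expressing full-length human PD-L2. Staining took 20 min at 4° C with APC-labelled anti-rat IgG or anti-human IgG Fc, chosen to match the antibody format. GraphPad Prism was used for non-linear curve fitting of percentage of maximal binding against concentration to obtain the binding EC50.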

The target of test [5] is T4, human PD-L2 (full-length, on cells). Kind of test: FACS, NCI-H226 cells. Summed up:
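NCI-H226 human lung squamous carcinoma cells (1.5×10⁵) were stained with APC-labelled goat anti-rat IgG (1:2000) for 20 min at 4° C. Binding to endogenous PD-L2 on these cells was then read by flow cytometry on a BD FACSCalibur. GraphPad Prism non-linear fitting of percentage of maximal binding versus concentration gave the binding EC50.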

For test [6] the target is unchanged. Kind of test: blocking of hPD-1 binding to CHO-K1/hPD-L2 cells. Summed up:
(§4)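 Serially diluted antibody (0.25 ng/ml-4 μg/ml) was applied for 30 min at 4° C to 1.5×10⁵ CHO-K1 cells stably expressing human PD-L2, after which 0.5 μg/ml recombinant human PD-1-mouse Fc was added for 30 min at 4° C and detected with fluorochrome-conjugated anti-mouse IgG2a (1:200, 20 min, 4° C). Bound PD-1 was read by flow cytometry against reference wells setting 0% and 100% binding. The IC50 was calculated through non-linear curve fitting in GraphPad Prism.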

For test [7] the target is unchanged. Kind of test: FACS binding to CHO-K1 cells expressing human PD-L2. Summed up:
as §3

Test [8] concerns the target T1, human PD-L2 (full-length, on cells). Kind of test: hybridoma supernatant screen on cells expressing human PD-L2.
Test [9] has as its target T5, mouse PD-L2 (full-length, on cells) (mouse, UniProt Q9WUL5 20-247).
T5 construct: whole, on cells; HEK293 cells stably expressing full-length mouse PD-L2
T5 sequence (looked up): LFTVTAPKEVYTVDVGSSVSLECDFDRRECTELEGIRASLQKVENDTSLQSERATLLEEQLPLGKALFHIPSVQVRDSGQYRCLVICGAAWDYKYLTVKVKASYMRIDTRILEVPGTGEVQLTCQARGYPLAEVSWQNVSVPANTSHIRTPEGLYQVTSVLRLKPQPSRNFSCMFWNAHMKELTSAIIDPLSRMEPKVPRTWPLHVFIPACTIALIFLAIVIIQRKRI
Kind of test: FACS on HEK293 cells stably expressing full-length mouse PD-L2. The method, then: as §1

The target in test [10] is T3, recombinant human PD-L2-Fc-biotin. Kind of test: blocking of hPD-L2 binding to HEK293-hPD-1 cells. Summed up:
as §2

Test [11] addresses T4, human PD-L2 (full-length, on cells). Kind of test: FACS, CHO-K1 expressing human PD-L2. Summed up:
as §3

For test [12] the target is unchanged. Kind of test: FACS blocking of PD-1 binding to CHO-K1/hPD-L2; high antigen concentration. Summed up: as §4

B1: 2-19H2 (antibody, V domains shown)
VH: QVQLVQSGAEVKKPGASVKVSCKASGYTFTNYAIHWVRQAPGQRLEWMGWINTGLGKPKYSQLFQDRVTITRDTSASTASMELSGLRSDDTAVYYCARVGWELYFDYWGQGTLVTVSS
VL: DIQMTQSPSTLSASVGDRVTITCRASQTISSWLAWYQQKPGKAPNLLIYKASSLESGVPSRFSGSGSGTEFTLTISSLQPDDFATYYCQQYYSYWTFGQGTKVEIK
notes: VH of 19B3-B3 M23K.M63L.HC with VL of 2C4-E4; kappa; also called 2-H192
As for B1, the binding result in test [1] was “binds”.

B2: 19B3-B3 (antibody, V domains shown)
VH: QVQLVQSGAEVKKPGASVKVSCMASGYTFTNYAIHWVRQAPGQRLEWMGWINTGLGKPKYSQMFQDRVTITRDTSASTASMELSGLRSDDTAVYYCARVGWELYFDYWGQGTLVTVSS
VL: DIQMTQSPSTLSASVGDRVTITCRASQSISSLLAWYQQKPGKAPKLLIYKASSLESGVPSRFSGSGSGTEFTLTISSLQPDDFATYFCQQYNSYWTFGQGTKVEIK
notes: Both formats under this entry
Turning to B2, the figures for the binding result in test [2], in [8] and in [9] were “no binding (tested: 0.5 µg/ml)”, “binds” and “no binding (tested: 0.5 µg/ml)”, respectively. The IC50 stood at 0.0248 nM in test [3], 0.4 nM in test [6], 0.017 nM in [10] and 0.464 nM in [12]. Further, the EC50 in [4] was determined as 0.37 nM; in test [5], 0.177 nM; in test [7], 0.34 nM; in test [11] it was 0.338 nM.

B3: 12A1-D4 (antibody, V domains shown)
VH: QVQLQESGPGLVKPSGTLSLTCAVSGGSISSNNWWSWVRQPPGKGLEWIGEIFHVGSTNYNPSLKSRVTISVDKSKNQFSLKLSSLTAADTAVYYCARMVGATGHYYGMDVWGQGTTVTVSS
VL: DIQLTQSPSFLSASVGDRVTITCRASQGISSSLAWYQQKPGKAPKFLIYAASTLQSGVPSRFSGSGSGTEFTLTISSLQPEDFATYYCQQLNSYPKSWTFGQGTKVEIK
notes: Both formats under this entry
As for B3, the binding result in test [2] is given as “no binding (tested: 0.5 µg/ml)”; in test [8] it was “binds”; in test [9], “no binding (tested: 0.5 µg/ml)”. Moreover, the IC50 amounted to 0.0103 nM in test [3], 0.37 nM in test [6], 0.013 nM in [10] and 0.127 nM in test [12]. Further, the EC50 is 0.0989 nM in test [5], 0.42 nM in test [7] and 0.265 nM in test [11].

B4: 10A9-D2 (antibody, V domains shown)
VH: QVQLQESGPGLVKPSETLSLTCAVSGGSISSSYWWSWVRQPPGKGLEWVGEVFHVGVTNYNPSLKSRVTISVDKSKNQFSLKLTSVTAADTAVYYCARVTGTTGYYHGLDVWGQGTTVTVFS
VL: DIQMTQSPSSLSASVGDRVTITCRASQGIRNDLGWYQQKPGKVPKRLIYAASSLQSGIPSRFSGSGSGTEFTLTISSLQPEDFATYYCLQHNNYPRTFGQGTKVEIK
notes: Both formats under this entry
Consider B4, for which the binding result in test [2] was “no binding (tested: 0.5 µg/ml)”; in [8] it was “binds”; in test [9], “no binding (tested: 0.5 µg/ml)”. In addition, the IC50 turned out to be 0.0103 nM in [3], 0.34 nM in [6], 0.012 nM in test [10] and 0.198 nM in [12]. Also, the EC50 in [4] was found to be 0.32 nM; in [5], 0.0776 nM; in test [7] it was 0.38 nM; in test [11], 0.252 nM.

B5: 7H5-C5 (antibody, V domains shown)
VH: QVQLVESGGGLVKPGGSLRLSCAASGFSLSDYYMSWTRQAPGRGLEWVSFISSSGSTIYYVDSVKGRFTISRDHAKNSLYLQINSLRAEDTAVYYCARAQWLPDFDYWGQGTLVTVSS
VL: QSALTQPPSASGSPGQSVTISCTGTSSDVSGYNYVSWYQHHPDKAPKLLIYEVNKRPSGVPARFSGSKSGNTASLTVSGLQAEDEADYYCTSFADNNNVVFGGGTKLTVLG
notes: Both formats under this entry
Take B5: the binding result in test [2] is listed as “no binding (tested: 0.5 µg/ml)”; in [8], “binds”; in [9], “no binding (tested: 0.5 µg/ml)”. The IC50 was found to be 0.0311 nM in test [3], 0.93 nM in test [6], 0.026 nM in test [10] and 0.58 nM in test [12]. Further, the EC50 in test [5] worked out at 0.517 nM; in test [7], 1.6 nM; in [11] it was 0.765 nM.

B6: 9A3-C7 (antibody, V domains shown)
VH: QVQLVESGGGLVKPGGSLRLSCAASGFSLSDYYMSWIRQAPGRGLEWVSYISSSGSTIYYVDSVKGRFTISRDNAKNSLYLQINSLRAEDTAVYHCARAQWLPDFDYWGQGTLVTVSS
VL: QSALTQPPSASGSPGQSVTISCTGTSSDVGGYNYVSWYQHHPGKVPKLMIYEVSKRPSGVPDRFSGSKSGNTASLTVSGLQAEDEADYYCTSFADNNNVGFGGGTKLTVLG
notes: Both formats under this entry
For B6, the binding result in test [2] is listed as “no binding (tested: 0.5 µg/ml)”; in test [8], “binds”; in test [9], “no binding (tested: 0.5 µg/ml)”. Further, the IC50 in test [3] worked out at 0.0375 nM; in test [6], 1.2 nM; in test [10], 0.029 nM; in [12], 0.733 nM. The EC50 in test [5] stood at 0.644 nM; in [11], 0.873 nM.
